# B1: Rab guanine nucleotide exchange factor SEC2 (Saccharomyces cerevisiae), P17065 (parent)
# chain: MDASEEAKRVSIQVTSLSTQLIESVDKQSHLEEQLNKSLKTIASQKAAIENYNQLKEDYNTLKRELSDRDDEVKRLREDIAKENELRTKAEEEADKLNKEVEDLTASLFDEANNMVADARKEKYAIEILNKRLTEQLREKDTLLDTLTLQLKNLKKVMHSLDNESTVTNNSNRYSTILSDSATSSSTSLNKVPTSYSLASQDIYSGIVYSPSISSIRYDISLYNEFLKFVAALPRCENIKATSTESKLIRRLVNDEIQPILKIDNASGIGWLVKKTLLSLIIDGLVVVEPLSGVNATYQIGYNSSSPAKQATSNMPKMFKFPLDSPPVAVHAACSFCGESRDDIIEHARMYILKTLHKTDDGKEQVTNTYPLCHWCLLKLRQTCEIFAFLRSLKVGAWHLEKLTTQNITKEDLEKFSEVTKHTKRDGRVSSQDKKTKRLSFMAGLGINSSTKNKPKMEIFSSETNAKPGQPTTNIQRAWLQLCKLRCILHWTHIGIWAVDDSISSKIGPLVEDDSDEDQNDAISVRLQDKALWKQDAKRPFSSSSAEESQKSDAFDFESGDMENEITGESSSDESSSDGSSTDNSTADSSSEDESSLADSTTSSADSSSPESIDNGEGDDTVTKDDKSSIKSANNNEENSDCGDKKGRSIIKKKAPQRKIQKKKLLQDLDDLEEQFREESAIDQTEFENAESNVKQNISSKRASSGDENSKKDNNEKTLKTNLTIGDKTQEQIGENSPSSGLHASSSNDDNFDDAQEQQ
# partner: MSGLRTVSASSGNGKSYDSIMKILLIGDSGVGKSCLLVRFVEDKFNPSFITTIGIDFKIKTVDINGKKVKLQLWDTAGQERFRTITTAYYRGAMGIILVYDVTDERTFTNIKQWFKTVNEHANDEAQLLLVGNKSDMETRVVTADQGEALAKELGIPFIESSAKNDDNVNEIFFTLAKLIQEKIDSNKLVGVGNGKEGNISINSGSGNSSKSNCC
# Variants of: B1
# Settings: with sec4_yeast SEC4, P07560
row,Variant,effect of a mutation on the interaction
1,F109A,disrupting interaction
2,E100A,disrupting interaction
3,L104A,disrupting interaction
